FireProtDB (doi:10.1021/bi00123a002)
“And” between values parts separate entries of the source, which are not always exact repeats. Identical values can stand only once.

Settings: Salmonella typhimurium (strain LT2 / SGSC1412 / ATCC 700720), pH 7.8, 25 °C, Urea, CD, Potassium phosphate 10 mM, reversible: yes, whole UniProt chain shown

B1: Tryptophan synthase alpha chain wild type, P00929 (protein)
chain: MERYENLFAQLNDRREGAFVPFVTLGDPGIEQSLKIIDTLIDAGADALELGVPFSDPLADGPTIQNANLRAFAAGVTPAQCFEMLALIREKHPTIPIGLLMYANLVFNNGIDAFYARCEQVGVDSVLVADVPVEESAPFRQAALRHNIAPIFICPPNADDDLLRQVASYGRGYTYLLSRSGVTGAENRGALPLHHLIEKLKEYHAAPALQGFGISSPEQVSAAVRAGAAGAISGSAIVKIIEKNLASPKQMLAELRSFVSAMKAASRA
- unfolding free energy: 13.2 kcal/mol
- denaturant m value (transition: 3): 2.68 kcal/mol/M and 1.6 kcal/mol/M
- denaturant midpoint (higher = more stable) (transition: 3): 2.75 M and 3.64 M
- unfolding free energy (transition: 3): 7.35 kcal/mol and 5.81 kcal/mol
